From the RNAGym collection of RNA variant scans (doi:10.1093/molbev/msab373)

B1: Azoarcus group I ribozyme (parent)
chain: GUGCCUUGCGCCGGGAAACCACGCAAGGGAUGGUGUCAAAUUCGGCGAAACCUAAGCGCCCGCCCGGGCGUAUGGCAACGCCGAGCCAAGCUUCGGCGCCUGCGCCGAUGAAGGUGUAGAGACUAGACGGCACCCACCUAAGGCAAACGCUAUGGUGAAGGCAUAGUCCAGGGAGUGGCGAAAGUCACACAAACCGG

Variants of: B1
Assay: reverse-splicing fitness (ratio to wild type); higher = more active; in vitro selection; Mg2+ level not given
Procedure, shortened: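 An in vitro group I ribozyme library with randomized positions was T7-transcribed and gel-purified. In triplicate, 10 pmol RNA in EPPS pH 7.5 was reacted with 50 pmoles of a 30-nt RNA substrate for 1 h at 37 °C across several added MgCl2 levels (1–48 mM), then stopped with EDTA. Products were reverse transcribed from a substrate-complementary primer, PCR-amplified and sequenced (HiSeq 4000). Fitness is a variant's read proportion after selection over that before, normalised to wild type.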

Going from GUGCCUUGCGCCGGGAAACCACGCAAGGGAUGGUGUCAAAUUCGGCGAAACCUAAGCGCCCGCCCGGGCGUAUGGCAACGCUGAGCCAAGCUUCGGCGCCUGCGCCGAUGUAGGUGUAGAGACUAGACGGCACCCACCUAAGGCUAACGGUAUGGUGAAGGCAUAGUCCAGGGAGUGGCGAAAGUCACACAAACCGG to GUGCCUUGCGCCGGGAAACCACGCAAGGGAUGGUGUCAAAUUCGGCGAAACCUAAGCGCCCGCCCGGGCGUAUGGCAACGCUGAGCCAAGCUUCGGCGCCUGCGCCGAUGUAGGUGUAGAGACUAGACGGCACCCACCUAAGGCUAACGAUAUGGUGAAGGCAUAGUCUAGGGAGCGGCGAAAGUCACACAAACCGG, the reverse-splicing fitness falls from 0.028 to 0.0118.

Compared with GUGCCUUGCGCCGGGAAACCACGCAAGGGAUGGUGUCAAAUUCGGCGAAACCUAAGCGCCCGCCCGGGCGUAUGGCAACGCUGAGCCAAGCUUCGGCGCCUGCGCCGAUGUAGGUGUAGAGACUAGACGGCACCCACCUAAGGCUAACGAUAUGGUGAAGGCAUAGUCUAGGGAGAGGCGAAAGUCACACAAACCGG, GUGCCUUGCGCCGGGAAACCACGCAAGGGAUGGUGUCAAAUUCGGCGAAACCUAAGCGCCCGCCCGGGCGUAUGGCAACGCUGAGCCAAGCUUCGGCGCCUGCGCCGAUGUAGGUGUAGAGACUAGACGGCACCCACCUAAGGCUAACGAUAUGGUGAAGGCAUAGUCUAGGGAGGGGCGAAAGUCACACAAACCGG is lower in reverse-splicing fitness: 0.0133 for the first, 0.00593 for the second.

Compared with GUGCCUUGCGCCGGGAAACCACGCAAGGGAUGGUGUCAAAUUCGGCGAAACCUAAGCGCCCGCCCGGGCGUAUGGCAACGCUGAGCCAAGCUUCGGCGCCUGCGCCGAUGUAGGUGUAGAGACUAGACGGCACCCACCUAAGGCUAACGGUAUGGUGAAGGCAUAGUCGAGGGAGAGGCGAAAGUCACACAAACCGG, GUGCCUUGCGCCGGGAAACCACGCAAGGGAUGGUGUCAAAUUCGGCGAAACCUAAGCGCCCGCCCGGGCGUAUGGCAACGCUGAGCCAAGCUUCGGCGCCUGCGCCGAUGUAGGUGUAGAGACUAGACGGCACCCACCUAAGGCUAACGGUAUGGUGAAGGCAUAGUCGAGGGAGCGGCGAAAGUCACACAAACCGG is lower in reverse-splicing fitness: 0.00698 for the first, 0.00578 for the second.

First: GUGCCUUGCGCCGGGAAACCACGCAAGGGAUGGUGUCAAAUUCGGCGAAACCUAAGCGCCCGCCCGGGCGUAUGGCAACGCUGAGCCAAGCUUCGGCGCCUGCGCCGAUGUAGGUGUAGAGACUAGACGGCACCCACCUAAGGCUAACGGUAUGGUGAAGGCAUAGUCGAGGGAGGGGCGAAAGUCACACAAACCGG
Second: GUGCCUUGCGCCGGGAAACCACGCAAGGGAUGGUGUCAAAUUCGGCGAAACCUAAGCGCCCGCCCGGGCGUAUGGCAACGCUGAGCCAAGCUUCGGCGCCUGCGCCGAUGUAGGUGUAGAGACUAGACGGCACCCACCUAAGGCUAACGGUAUGGUGAAGGCAUAGUCAAGGGAGGGGCGAAAGUCACACAAACCGG
The reverse-splicing fitness of the first is lower: 0.00587 for the first, 0.00684 for the second.

Going from GUGCCUUGCGCCGGGAAACCACGCAAGGGAUGGUGUCAAAUUCGGCGAAACCUAAGCGCCCGCCCGGGCGUAUGGCAACGCUGAGCCAAGCUUCGGCGCCUGCGCCGAUGUAGGUGUAGAGACUAGACGGCACCCACCUAAGGCUAACGGUAUGGUGAAGGCAUAGUCAAGGGAGCGGCGAAAGUCACACAAACCGG to GUGCCUUGCGCCGGGAAACCACGCAAGGGAUGGUGUCAAAUUCGGCGAAACCUAAGCGCCCGCCCGGGCGUAUGGCAACGCUGAGCCAAGCUUCGGCGCCUGCGCCGAUGUAGGUGUAGAGACUAGACGGCACCCACCUAAGGCUAACGGUAUGGUGAAGGCAUAGUCAAGGGAGAGGCGAAAGUCACACAAACCGG, the reverse-splicing fitness rises from 0.00962 to 0.0112.

First: GUGCCUUGCGCCGGGAAACCACGCAAGGGAUGGUGUCAAAUUCGGCGAAACCUAAGCGCCCGCCCGGGCGUAUGGCAACGCUGAGCCAAGCUUCGGCGCCUGCGCCGAUGUAGGUGUAGAGACUAGACGGCACCCACCUAAGGCUAACGAUAUGGUGAAGGCAUAGUCCAGGGAGGGGCGAAAGUCACACAAACCGG
Second: GUGCCUUGCGCCGGGAAACCACGCAAGGGAUGGUGUCAAAUUCGGCGAAACCUAAGCGCCCGCCCGGGCGUAUGGCAACGCUGAGCCAAGCUUCGGCGCCUGCGCCGAUGUAGGUGUAGAGACUAGACGGCACCCACCUAAGGCUAACGAUAUGGUGAAGGCAUAGUCCAGGGAGCGGCGAAAGUCACACAAACCGG
The reverse-splicing fitness of the first is lower: 0.00782 for the first, 0.022 for the second.

First: GUGCCUUGCGCCGGGAAACCACGCAAGGGAUGGUGUCAAAUUCGGCGAAACCUAAGCGCCCGCCCGGGCGUAUGGCAACGCUGAGCCAAGCUUCGGCGCCUGCGCCGAUGUAGGUGUAGAGACUAGACGGCACCCACCUAAGGCUAACGAUAUGGUGAAGGCAUAGUCCAGGGAGAGGCGAAAGUCACACAAACCGG
Second: GUGCCUUGCGCCGGGAAACCACGCAAGGGAUGGUGUCAAAUUCGGCGAAACCUAAGCGCCCGCCCGGGCGUAUGGCAACGCUGAGCCAAGCUUCGGCGCCUGCGCCGAUGUAGGUGUAGAGACUAGACGGCACCCACCUAAGGCUAACGGUAUGGUGAAGGCAUAGUCGAGGGAGUGGCGAAAGUCACACAAACCGG
The reverse-splicing fitness of the first is higher: 0.0154 for the first, 0.0071 for the second.

In the case of GUGCCUUGCGCCGGGAAACCACGCAAGGGAUGGUGUCAAAUUCGGCGAAACCUAAGCGCCCGCCCGGGCGUAUGGCAACGCUGAGCCAAGCUUCGGCGCCUGCGCCGAUGUAGGUGUAGAGACUAGACGGCACCCACCUAAGGCUAACGGUAUGGUGAAGGCAUAGUCAAGGGAGUGGCGAAAGUCACACAAACCGG, the reverse-splicing fitness is reported as 0.00958.
